Data from patent US10143747B2, “Breast cancer therapeutics” (IMBA—INSTITUT FÜR MOLEKULARE BIOTECHNOLOGIE GMBH, priority 2010, dated 2018).

Tested on: primary mouse mammary epithelial cells
Assay: DNA damage responses (cell cycle arrest, apoptosis) in primary mouse mammary epithelial cells
Format: cell-based
Conditions: RANKL 1 μg/ml
Method: a, Western Blot analysis for γH2AX, phosphorylated (P) Chk1, total Chk1, p53 and β-actin in isolated primary mouse mammary gland epithelial cells in response to γ-irradiation (2 Gray) in the presence (1 μg/ml) or absence of RANKL stimulation. b,c, FACS analysis of propidium iodide (PI) stained b, mammary epithelial cells and c, SKBR3 human breast cancer cells after γ-irradiation (2 Gray) in the absence or presence (1 μg/ml) of RANKL. Data are representative of at least 3 experiments. Apoptotic cells with a DNA content <2n appear in the sub-G1 region. Percent of cells in sub-G1 (M1), G1-phase (M2), S/G2/M-phase (M3) as well as polyploid cells with a DNA content >4n are given for the indicated time points.
a,b, FACS analysis of a, mammary epithelial cells and b, SKBR3 human breast cancer cells incubated with the genotoxic agent doxorubicin (Dox, 1 μM) in the presence (1 μg/ml) or absence of RANKL. Data are representative of at least 3 experiments. Percent of cells in sub-G1 (M1), G1-phase (M2), S/G2/M-phase (M3) as well as polyploid cells with a DNA content >4n are given for 24 and 36 hours after doxorubicin treatment. c, mRNA expression of pro-apoptotic genes Bim, Puma, and Noxa 6 hours after γ-irradiation (2 Gray) in the presence (1 μg/ml) or absence of RANKL stimulation. Data are shown as fold change compared to control (+/−sem). n=3). *P<0.05; **P<0.005 (Student's t-test).
For measurement of cell cycle arrest and apoptosis primary mouse mammary epithelial cells and SKBR3 human breast cancer cells were seeded at a cell-density of 100000 cells/well in a 6-well plate and allowed to grow for 24 hours. Cells where then treated with doxorubicin (1 μM) or γ-irradiation (2 Gray) in the absence or presence of recombinant RANKL (1 μg/ml). Cell cycle arrest and numbers of dead cells were determined using propidium iodine staining. To determine in vivo mammary gland epithelial cell death, control and RANK^Δmam littermate females were γ-irradiated with a total dose of 5 Gray (Gy). Six hours later, mammary glands were isolated and immunostained for active Caspase 3 (Cell Signaling) indicative of apoptosis.

B1: RANKL: recombinant RANKL protein, ligand of RANK, used as stimulus (1 μg/ml or 1 μg i.p.) (protein, UniProt O35235 139-316, looked up)
Tumor necrosis factor ligand …: FSGAPAMMEGSWLDVAQRGKPEAQPFAHLTINAASIPSGSHKVTLSSWYHDRGWAKISNMTLSNGKLRVNQDGFYYLYANICFRHHETSGSVPTDYLQLMVYVVKTSIKIPSSHNLMKGGSTKNWSGNSEFHFYSINVGGFFKLRAGEEISIQVSNPSLLDPDQDATYFGAFKVQDID
γ-irradiation-induced upregulation of proapoptotic Bim, Puma and Noxa mRNA (6 hours after γ-irradiation 2 Gray, cell type not stated): did not occur in the presence of RANKL
early cell cycle arrest after DNA damage (doxorubicin 1 μM): did not alter the early cell cycle arrest
protection from cell death (doxorubicin 1 μM): marked protection from cell death
early cell cycle arrest after DNA damage (γ-irradiation 2 Gray): did not alter the early cell cycle arrest
induction of γH2AX and p53, activation of Chk1 (DNA damage response markers) (γ-irradiation 2 Gray): did not alter induction of γH2AX and p53 or activation of Chk1
protection from cell death (γ-irradiation 2 Gray): marked protection from cell death
